Target: GST-tagged recombinant phosphorylated human ERK2 (human) (UniProt P28482)
Sequence of UniProt P28482 (P28482 whole entry): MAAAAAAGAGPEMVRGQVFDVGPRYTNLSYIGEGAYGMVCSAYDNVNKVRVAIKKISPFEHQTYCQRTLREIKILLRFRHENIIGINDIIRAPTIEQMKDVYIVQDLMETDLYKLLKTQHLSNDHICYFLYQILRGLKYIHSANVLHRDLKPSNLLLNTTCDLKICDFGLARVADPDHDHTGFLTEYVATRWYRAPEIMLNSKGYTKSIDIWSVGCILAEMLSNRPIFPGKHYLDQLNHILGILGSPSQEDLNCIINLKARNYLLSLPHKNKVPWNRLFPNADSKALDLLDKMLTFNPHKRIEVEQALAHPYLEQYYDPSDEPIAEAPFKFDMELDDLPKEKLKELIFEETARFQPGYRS

- dephosphorylation of pERK2 by western blot, dose curve 0.1-10 nM enzyme, 15 min; concentration at which the pERK band is completely absent (0.5 nM for GST-DUSP5): 5 nM
B1: GST-S147P, glutathione-S-transferase-tagged full-length human DUSP5 serine 147 proline mutant (enzyme)
chain: MKVTSLDGRQLRKMLRKEAAARCVVLDCRPYLAFAASNVRGSLNVNLNSVVLRRARGGAVSARYVLPDEAARARLLQEGGGGVAAVVVLDQGSRHWQKLREESAARVVLTSLLACLPAGPRVYFLKGGYETFYSEYPECCVDVKPIPQEKIESERALISQCGKPVVNVSYRPAYDQGGPVEILPFLYLGSAYHASKCEFLANLHITALLNVSRRTSEACATHLHYKWIPVEDSHTADISSHFQEAIDFIDCVREKGGKVLVHCEAGISRSPTICMAYLMKTKQFRLKEAFDYIKQRRSMVSPNFGFMGQLLQYESEILPSTPNPQPPSCQGEAAGSSLIGHLQTLSPDMQGAYCTFPASVLAPVPTHSTVSELSRSPVATATSC
